Experimental data reported in patent US20080241155A1 (Human Genome Sciences, published 2008).

T1: Fas ligand (UniProt P48023 130-281, limits assumed)
T1 construct: Detected by immunoblotting with an antibody to FasL (Pharmingen)
T1 sequence (looked up): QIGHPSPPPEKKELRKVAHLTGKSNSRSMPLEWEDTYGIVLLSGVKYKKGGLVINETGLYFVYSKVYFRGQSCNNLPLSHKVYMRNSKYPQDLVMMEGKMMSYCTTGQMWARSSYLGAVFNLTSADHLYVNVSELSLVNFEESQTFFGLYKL


How the values were obtained:
[1] = target: T2, TRAIL (TNF-related apoptosis-inducing ligand), soluble (UniProt P50591 95-281, limits assumed); test: receptor-Fc / ligand co-precipitation, immunoblot
T2 construct: also called Apo-2 ligand; Apo-2L
T2 sequence (P50591 95-281 limits assumed): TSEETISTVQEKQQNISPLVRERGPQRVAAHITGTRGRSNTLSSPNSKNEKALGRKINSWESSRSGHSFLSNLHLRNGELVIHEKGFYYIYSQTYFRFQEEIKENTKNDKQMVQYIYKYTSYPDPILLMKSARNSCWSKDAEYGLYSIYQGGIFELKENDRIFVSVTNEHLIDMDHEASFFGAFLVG

Fas ligand = target: T1, Fas ligand; test: receptor-Fc / ligand co-precipitation, immunoblot
[2] = target: T3, TNFα (tumor necrosis factor alpha) (UniProt P01375 77-233, limits assumed); test: co-precipitation from mixed conditioned media with protein G-Sepharose, immunoblot
T3 construct: also called TNF alpha
T3 sequence (P01375 77-233 limits assumed): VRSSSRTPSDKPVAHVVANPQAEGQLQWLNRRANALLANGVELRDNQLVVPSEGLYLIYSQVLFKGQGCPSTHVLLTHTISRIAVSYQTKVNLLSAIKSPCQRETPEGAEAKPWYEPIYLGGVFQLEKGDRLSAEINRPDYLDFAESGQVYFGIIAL

| binding result [1] | binding result (Fas ligand) | Binder | binding result [2] |
| --- | --- | --- | --- |
| no binding |  | TNFR1-Fc (extracellular domain of TNFR-1 expressed as an Fc fusion) (Fc fusion, UniProt P19438 30-211, looked up, extracellular domain; not shown: Fc portion of human IgG) LVPHLGDREKRDSVCPQGKYIHPQNNSICCTKCHKGTYLYNDCPGPGQDTDCRECESGSFTASENHLRHCLSCSKCRKEMGQVEISSCTVDRDTVCGCRKNQYRHYWSENLFQCFNCSLCLNGTVHLSCQEKQNTVCTCHAGFFLRENECVSCSNCKKSLECTKLCLPQIENVKGTEDSGTT |  |
| no binding |  | CD95-Fc (extracellular domain of CD-95 / Fas expressed as an Fc fusion) (Fc fusion, UniProt P25445 26-173, looked up, extracellular domain; also called Fas-Fc; Fc-extracellular domain of Fas; not shown: Fc portion of human IgG) QVTDINSKGLELRKTVTTVETQNLEGLHHDGQFCHKPCPPGERKARDCTVNGDEPDCVPCQEGKEYTDKAHFSSKCRRCRLCDEGHGLEVEINCTRTQNTKCRCKPNFFCNSTVCEHCDPCTKCEHGIIKECTLTSNTKCKEEGSRSN |  |
|  | no binding | DR4-Fc (soluble extracellular ligand binding domain of DR4, amino acids 110 to 239, fused to the Fc portion of human IgG) (Fc fusion, Cloned into a modified pCMV1FLAG vector for in-frame fusion with human IgG Fc and expressed in 293 cells; used as conditioned medium; also called soluble extracellular DR4-Fc fusion; Fc-extracellular domain of DR4; not shown: Fc portion of human immunoglobulin (IgG)) TIKLHDQSIGTQQWEHSPLGELCPPGSHRSERPGACNRCTEGVGYTNASNNLFACLPCTACKSDEEERSPCTTTRNTACQCKPGTFRNDNSAEMCRKCSTGCPRGMVKVKDCTPWSDIECVHKESGNGHN | no binding |
